Data: the supplement of paper PMC9170038

System: MS2 coat protein
Assay: apparent KD of MS2 coat protein; designed switch direction (-1 OFF switch, 1 ON switch): -1; higher = weaker reporter binding
In short: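 On Illumina chips, designed RNA switches with common flanks were made by stalled E. coli RNA polymerase. Titrations with SNAP-549-labelled MS2 coat protein, doubling from 0.7 or 1.5 nM to 3 µM, were done with no input, with 200 uM small-molecule ligand, or with an oligonucleotide input. Apparent KD is the median per design over clusters, from curve fits of normalised cluster fluorescence.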

[1] = input ligand: microRNA oligo, concentration not stated
[2] = Eterna round: R95, input ligand: FMN 200 uM
[3] = Eterna round: R95, input ligand: microRNA oligo, concentration not stated
[4] = Eterna round: R95, input ligand: none

Sequence	apparent KD of MS2 coat protein (input ligand: FMN 200 uM)	apparent KD of MS2 coat protein (input ligand: none)	apparent KD of MS2 coat protein [1]	apparent KD of MS2 coat protein [2]	apparent KD of MS2 coat protein [3]	apparent KD of MS2 coat protein [4]
GGAAUGAGAGAGGAUAUGGGAGGGAGGACCGGACCAGAAGGCUCGACAUGAGGAUCACCCAUGUAGAGAUCCUC [AK-MS2ROC-r4-exclusion6-6.10] (Eterna round: R97, puzzle: Exclusion 6)	260 nM	75.7 nM				
GGAAUGUAAGGAUAUGCGAAAAGAAGCCGAAGGGAGUCGAAGCAGAAGGUACAUGAGGAUCACCCAUGUAAGGG [AK-MS2ROC-r4-exclusion4-12.1] (Eterna round: R97, puzzle: Exclusion 4)	159 nM	700 nM				
GGACAUGCAGGAUAUGUAAAAUUUGACAUGAGGAUCACCCAUGUAGAUCCUGAAUUUCCUGCAGAAGGGCAUGUCC [Mat - Exclusion 5 - Eli Mod - D18] (Eterna round: R97, puzzle: Exclusion 5)	396 nM	109 nM				
GGACUAGGAGGAUAUACAUGAGGAUCACCCAUGUGUUGAUAAAGUCUACACAAUGUUAGUAGAAGGCUUAGACC [Eternabot (L2) Solution 18] (Eterna round: R97, puzzle: Exclusion 3)	22.5 nM	17.5 nM				
GGACUGCGACACAGCCAAACAAAACAUGAGGAUCACCCAUGUCAGGAUAUACCGAUGCAGCAUCUGUAGAAGGGACAGAUCCAA [Qusorave] (Eterna round: R96, puzzle: Exclusion NG 3)	80.3 nM	85.9 nM	45.4 nM			
GGAGAACAUGAGGAUCACCCAUGUAAGGAUAUGCAAAAGGAUAUAGAAGGAAAAAAAAGCAGAAGGUACAAAGG [salish99-ex1_r3_101] (puzzle: Exclusion 1)				79.5 nM	81.9 nM	75.1 nM
GGAGAGGCAGGAUAUACAUGAGGAUCACCCAUGUGAGCGAGGAGAACGAGCAAGAGAGGUAGAAGGGCCGGGAG [AK-MS2ROC-r4-exclusion3-27] (Eterna round: R97, puzzle: Exclusion 3)	46.5 nM	44.9 nM				
GGAGCGGCAGGAUAUACAUGAGGAUCACCCAUGUAAAGAAGGGUAAGAAACCACCUCGGUAGAAGGGCCAGGAG [AK-MS2ROC-r4-exclusion3-10] (Eterna round: R97, puzzle: Exclusion 3)	191 nM	94.5 nM				
GGAGGAAAGAUAGGAUAUUAGAGGAAGGUGGUGAUAGAGACAUGAGGAUCACCCAUGUAAGGAGGUAAGAAGGGUCGAGGAGGA [AK ExNG2-V2-6] (Eterna round: R96, puzzle: Exclusion NG 2)	231 nM	243 nM	66.5 nM			
GGAGGACGAGCAGGAUAUUUUCACAUGAGGAUCACCCAUGUGUAAUCAGGGUAAUCCUCCGCCGAAAAGAAGGGUUCGGAAUAA [Mat - Exclusion NG 2 - Mod of JL - D82] (Eterna round: R96, puzzle: Exclusion NG 2)	60 nM	70.5 nM	52.4 nM			
GGAGGUGAGGUAAGGAUAUCCUCCUCGAAAGAGGAGGAGAAGGUACAUGAGGAUCACCCAUGUAAGGAAGGAGG [AK-MS2ROC-r4-Bmoexclusion4-11] (Eterna round: R97, puzzle: Brourd's mod of Exclusion 4)	152 nM	54.2 nM				
GGAGUACAUGAGGAUCACCCAUGUGAGGAUAUGUAAGGAUAGUAGGUAAGGAAAGAGGACAGAAGGCACGGGAA [JR_Exclu1_Sub070] (puzzle: Exclusion 1)				46 nM	41.4 nM	67.2 nM
GGAUAAAAGACAGGAUAUGAGGAGAGAGAGAGAUCAGAAGGGUCACAUGAGGAUCACCCAUGUGAGUUCUCGAUAAGAAACACG [Prohibition 54 - Jieux - Exclusion NG 1] (Eterna round: R96, puzzle: Exclusion NG 1)	15.5 nM	18.4 nM	12.7 nM			
GGAUAAAAGUCAGGAUAUACGUAUCACUAACGAGUAGAAGGGACACAUGAGGAUCACCCAUGUGAGUUCUCAAUAAGAAACACG [Prohibition 62 - Jieux - Exclusion NG 1] (Eterna round: R96, puzzle: Exclusion NG 1)	13.8 nM	14.9 nM	12.2 nM			
GGAUAGUGAGGAUAUCGAUGUUAGGAGGAGUAGAUAGGAGGCGAGAAGGCACAUGAGGAUCACCCAUGUAUGGA [JR_Exclu4_Sub068] (puzzle: Exclusion 4)					47.8 nM	
GGAUAGUGAGGAUAUGCAUACGGUGUAAGUCCCAGAUCGAAACAUGAGGAUCACCCAUGUAGAAGGCGCAAAAC [Begerila] (puzzle: Exclusion 2)					20.2 nM	
GGAUAUAACGUAGGAUAUGAGAGAAACAGACGAUCAGAAGGACGACAUGAGGAUCACCCAUGUGAUCUAUCAAUAUUAUACAUG [Prohibition 97 - Jieux - Exclusion NG 1] (Eterna round: R96, puzzle: Exclusion NG 1)	446 nM	300 nM	180 nM			
GGAUAUCGAGGAUAUACAUGAGGAUCACCCAUGUUGAAUCCGUGGGAUGGCCGACGAUGUAGAAGGUGACUCAU [Eternabot (Original) Solution 27] (Eterna round: R97, puzzle: Exclusion 3)	134 nM	232 nM				
GGAUCACAUGUUAGGAUAUGCAGGUCCUUGGAUCUGCAGAAGGGACAUGAGGAUCACCCAUGUCAUGAAGAUCC [Mat - Exclusion 4 - Eli Mod - D52] (Eterna round: R97, puzzle: Brourd's mod of Exclusion 4)	43.4 nM	21 nM				
GGAUCAUAUGUCAGGAUAUGCAGGUCCUUGGAUCUGCAGAAGGGACAUGAGGAUCACCCAUGUCAUGUAGAUCC [Mat - Exclusion 4 - Eli Mod - D54] (Eterna round: R97, puzzle: Brourd's mod of Exclusion 4)	116 nM	25.3 nM				
GGAUCCUGGGUCAGGAUAUGCUGACAGCUUUGUCAGCAGAAGGGACAUGAGGAUCACCCAUGUGCUCGGUUUUG [Magic-20] (puzzle: Brourd's mod of Exclusion 4)					9.68 nM	
GGAUCGAAAGUGAGGAUAUACCACUGGAUACAGUGGUAGAAGGCACAUGAGGAUCACCCAUGUCUCUACGAUCC [Fiskers BMX 4 - 42] (puzzle: Brourd's mod of Exclusion 4)				39.9 nM	13 nM	15 nM
GGAUCGAAUGUCAGGAUAUGCUGGUCCUUGGAUCAGCAGAAGGGACAUGAGGAUCACCCAUGUCCUCUCGGUCC [Eli bmx4 4.52] (Eterna round: R97, puzzle: Brourd's mod of Exclusion 4)	222 nM	26.5 nM				
GGAUCGAAUGUGAGGAUAUACCACUGGAUACAGUGGUAGAAGGCACAUGAGGAUCACCCAUGUCCUUACGAUCC [Fiskers BMX 4 - 47] (puzzle: Brourd's mod of Exclusion 4)					74.2 nM	
GGAUCGAAUGUGAGGAUAUGCUGGUCCUUGGAUCAGCAGAAGGCACAUGAGGAUCACCCAUGUGAAGACGGUCC [Eli bmx4 4.31] (Eterna round: R97, puzzle: Brourd's mod of Exclusion 4)	201 nM	41.4 nM				
GGAUCGAGUGUGAGGAUAUGCUGGUCCUUGGAUCAGCAGAAGGCACAUGAGGAUCACCCAUGUGGAGACGGUCC [JL bmx4 3.17] (puzzle: Brourd's mod of Exclusion 4)				298 nM	92.4 nM	102 nM
GGAUCUACUGAGGAUAUUACAUCACCCGACUGAUAAGAAGGCAGAACAUGAGGAUCACCCAUGUGGGUAGCCAC [Polaris5] (Eterna round: R97, puzzle: Exclusion 6)	56.3 nM	35.7 nM				
GGAUCUUGGGUCAGGAUAUGCUGAUAGUUAUGUCAGCAGAAGGGACAUGAGGAUCACCCAUGUGCUUGGUUUUG [Magic-17] (Eterna round: R96, puzzle: Brourd's mod of Exclusion 4)	40.9 nM	17.2 nM	12.7 nM			
GGAUCUUGGGUCAGGAUAUGCUGAUAGUUAUGUCAGCAGAAGGGACAUGAGGAUCACCCAUGUGCUUGGUUUUG [Magic-17] (puzzle: Brourd's mod of Exclusion 4)					13.1 nM	
GGAUGUUCAGAGGAUAUCGAUCCCGAGACCGGGCGAGAAGGUUGAACAUGAGGAUCACCCAUGUGAGGCCUAAC [Cebezais] (Eterna round: R97, puzzle: Exclusion 6)	38.5 nM	12.7 nM				
